# Measured values published in paper PMC5640805.
# Columns and labels:
# [1] = target: C108 SOSIP.664 trimer (HIV-1 (isolate C108.c03)); experiment: negative-stain EM; PGT145-purified SOSIPs; class averages
# [2] = target: C108 SOSIP.664 trimer (HIV-1 (isolate C108.c03)); experiment: SEC; PGT145-affinity-purified SOSIPs on a Superdex 200 10-300 GL column in PBS
# [3] = target: CRF250 SOSIP.664 trimer (HIV-1 (isolate CRF-T250-4)); experiment: negative-stain EM; PGT145-purified SOSIPs; class averages
# [4] = target: CRF250 SOSIP.664 trimer (HIV-1 (isolate CRF-T250-4)); experiment: SEC; PGT145-affinity-purified SOSIPs on a Superdex 200 10-300 GL column in PBS
# [5] = target: MGRM8 SOSIP.664 trimer (HIV-1 (isolate MGRM_AG_002_8)); experiment: negative-stain EM; PGT145-purified SOSIPs; class averages
# [6] = target: MGRM8 SOSIP.664 trimer (HIV-1 (isolate MGRM_AG_002_8)); experiment: SEC; PGT145-affinity-purified SOSIPs on a Superdex 200 10-300 GL column in PBS
# [7] = target: WITO SOSIP.664 trimer (HIV-1 (isolate WITO4160.33)); experiment: negative-stain EM; PGT145-purified SOSIPs; class averages
# [8] = target: WITO SOSIP.664 trimer (HIV-1 (isolate WITO4160.33)); experiment: SEC; PGT145-affinity-purified SOSIPs on a Superdex 200 10-300 GL column in PBS
substance,measurement,setting,value
C108 SOSIP.664 trimer (complex),stoichiometry N,[1],3
same,stoichiometry N,[2],3
CRF250 SOSIP.664 trimer (complex),stoichiometry N,[3],3
same,stoichiometry N,[4],3
MGRM8 SOSIP.664 trimer (complex),stoichiometry N,[5],3
same,stoichiometry N,[6],3
WITO SOSIP.664 trimer (complex),stoichiometry N,[7],3
same,stoichiometry N,[8],3
